In PMC5552228, “Mapping the contact surfaces in the Lamin A:AIMP3 complex by hydrogen/deuterium exchange FT-ICR mass spectrometry” (PLoS ONE, 2017):

Target: T1, His-Tev-AIMP3 (aminoacyl-tRNA synthetases-interacting multifunctional protein 3) (human, UniProt O43324 1-174)
T1 construct: also called AIMP3/p18; MSC p18; source: E. coli BL21 (DE3), pET28a, purified (Ni-HiTrap, desalting column); not shown: His6-Tev (6-his tag and Tobacco Etch Virus protease cutting site, aa1-22 of the construct), N-terminal, kept
T1 sequence (looked up): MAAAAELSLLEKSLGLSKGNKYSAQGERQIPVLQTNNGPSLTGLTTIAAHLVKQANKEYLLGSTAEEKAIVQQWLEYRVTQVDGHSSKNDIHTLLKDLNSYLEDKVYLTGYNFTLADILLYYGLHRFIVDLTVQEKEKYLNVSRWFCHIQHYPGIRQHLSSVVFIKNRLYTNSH
Test: HDX-MS; AIMP3 and LmnA mixed in 1:1 ratio, 40 uM stock, 20 mM Hepes, 150 mM NaCl, pH 7.5, diluted into D2O; 0.5-240 min at 0.4 °C; protease type XIII digestion; LC-ESI 14.5 T FT-ICR MS; free against complexed protein
Details: both partners purified

- binding result: binds
B1: His-Strep-TrxA-LmnA (C-terminal part of Lamin A, 567-646) (domain or fragment, UniProt P02545 567-646, looked up)
chain: GSHCSSSGDPAEYNLRSRTVLCGTCGQPADKASASGSGAQVGGPISSGSSASSVTVTRSYRSVGGSGGGSFGDNLVTRSY
notes: C-terminal part of mature Lamin A, residues 567-646 by the methods (the results say aa567-647, 80 aa); ends in NLVTRSY (203-209 of the construct); also called LmnA C-terminus; LmnA (aa567-647); source: E. coli BL21 (DE3), pET28a, purified (as for AIMP3: Ni-HiTrap, desalting column); not shown: His, N-terminal, kept; Strep, N-terminal, kept; TrxA (thioredoxin), N-terminal, kept
